Data set [1] concerns the target FBXL6 (F-Box and Leucine Rich Repeat Protein 6) (UniProt Q8N531). In words: co-IP with anti-Flag IgG, blot. The following applies: reference: wild-type TKT; sites T287.

Where two headings read alike, the source gives them in different places.

Take “TKT (transketolase) (from UniProt P29401) TKT T287A”: the “binding against the reference” value in data set [1] is “lost”.
With TKT (transketolase): K319A, under “ubiquitination at K319”, the enzymatic_activity result is on record as “abolishes”, the localisation_or_trafficking result was “changes” and the other result was “decreases”.
Take “TKT (transketolase): VRK2 inhibition (IC261, 5 μM) or siVRK2”: the other result (phosphorylation at T287) was “decreases”.
Take TKT (transketolase): K16A: under “ubiquitination at K16”, the enzymatic_activity entry is “abolishes”, the localisation_or_trafficking result was “changes” and the other entry is given as “decreases”.
As for TKT (transketolase): T287A, for the setting “phosphorylation at T287”, the enzymatic_activity result is given as “decreases”, the localisation_or_trafficking entry was “changes” and the other entry is “decreases”.

The record behind these values is publication PMC10618235.
